We go through 2 molecules from patent US20180043012A1 (CSL BEHRING RECOMBINANT FACILITY, published 2018).

In assay [1] the target is T1, purified monomeric human VWF (von Willebrand factor) (human, UniProt P04275 764-2813, limits assumed).
T1 construct: Analyte in the mobile phase in all SPR experiments; Background text says mature plasma VWF is the 2050-residue polypeptide; also called VWF monomers; monomeric VWF
As to the kind of experiment: SPR, CLEC10A immobilized on CM3 chip, fit of the dissociation phase alone. How it is done:
Interaction analysis cycles consisted of a 5 min sample injection phase. In this association phase, VWF bound to CLEC10A immobilized on the surface, and increased the surface mass. This phase was followed by a dissociation phase of 17 min in running buffer. In the dissociation phase, the sample was replaced by running buffer and the dissociated VWF was removed from the surface, resulting in a decreased surface mass. All samples were tested as repeat determination. […] Although kinetic data were analyzed using Biacore T200 Evaluation Software Version 1.0 (GE Healthcare Biosciences, Uppsala, Sweden), the data set was only used for information purpose.
SPR was predominantly used as mass detector. An interaction of VWF with CLEC10A was detected by an increase in accumulating mass and specific binding was identified by subtracting the binding response recorded from the control surface, followed by subtracting an average of the buffer blank injections. A time point was positioned 20 seconds after the end of sample injection and was evaluated as representative for a stable protein-ligand interaction, which was of interest. […] Furthermore, testing was performed at least in duplicate and the response was calculated relative to the baseline in each case. […] Moreover, dissociation rate constants (off-rate) were calculated by fitting the dissociation phase alone. […]
A general note: Surface plasmon resonance follows binding to a sensor surface in real time, without labels.

Assay [2] has as its target T1, purified monomeric human VWF (von …). The assay is described as follows: SPR, MGL1 immobilized on CM3 chip, fit of the dissociation phase alone.

B1: recombinant human CLEC10A, extracellular domain (R&D Systems) (receptor, UniProt Q8IUN9 61-316, looked up)
chain: QNSKFQRDLVTLRTDFSNFTSNTVAEIQALTSQGSSLEETIASLKAEVEGFKQERQAGVSELQEHTTQKAHLGHCPHCPSVCVPVHSEMLLRVQQLVQDLKKLTCQVATLNNNASTEGTCCPVNWVEHQDSCYWFSHSGMSWAEAEKYCQLKNAHLVVINSREEQNFVQKYLGSAYTWMGLSDPEGAWKWVDGTDYATGFQNWKPGQPDDWQGHGLGGGEDCAHFHPDGRWNDDVCQRPYHWVCEAGLGQTSQESH
notes: extracellular domain; also called macrophage Gal-type lectin; CD301
What is called koff is a measure of how fast the partners let go of each other. Higher therefore signals a short-lived complex. In turn, B1 yielded a koff in assay [1] of 0.00051 s⁻¹.

B2: mouse MGL1 (CLEC10A orthologous mouse receptor protein) (receptor, UniProt P49300 57-304, looked up)
chain: QNSQLRRDLGTLRATLDNTTSKIKAEFQSLDSRADSFEKGISSLKVDVEDHRQELQAGRDLSQKVTSLESTVEKREQALKTDLSDLTDHVQQLRKDLKALTCQLANLKNNGSEVACCPLHWTEHEGSCYWFSESEKSWPEADKYCRLENSHLVVVNSLEEQNFLQNRLANVVSWIGLTDQNGPWRWVDGTDFEKGFKNWAPLQPDNWFGHGLGGGEDCAHITTGGPWNDDVCQRTFRWICEMKLAKES
B2 showed a dissociation rate constant (koff) in assay [2] of 0.000406 s⁻¹.
